Reference: patent US20220389113A1, “BINDING PROTEINS TO CUB DOMAIN-CONTAINING PROTEIN (CDCP1)” (COMMONWEALTH SCIENTIFIC AND INDUSTRIAL RESEARCH ORGANISATION, priority 2019, published 2022)

Key:
TKCC05 cells = assay: Survival assay with cytotoxin-conjugated antibodies, TKCC05; assay type: cell-based, human; details: TKCC05, 1 μg/ml, 12 h treatment then 72 h growth
Procedure: (§1) The relative number of viable cells was then measured by adding the CellTiter AQueous One Solution Reagent to each well and measuring absorbance at 490 nm as described above. […] Cells were imaged by wide-field fluorescence microscopy and the total area of confluence for each cell type was quantified by image analysis using Image J software.

OVMZ6-CDCP1 cells = assay: Colony formation assay, OVMZ6-CDCP1 cells; assay type: cell-based, human
Procedure: (§2) MMAE-conjugated 10D7 and IgG1K were prepared as described (Nielsen C F, et al., (2017) Oncotarget. 8(27):44605-24.53) and drug-antibody ratio (DAR) determined by reverse phase LC/MS as reported (Basa L. et al., (2013) Methods Mol Biol. 1045:285-93.) on an ABSCIEX Triple TOF spectrometer (AB SCIEX Framingham, Mass.) coupled to a Shimadzu Nexera 1D UHPLC system (Shimadzu, Rydalmere, Australia). ADC peak identification was performed as reported with DAR determined by peak area integration (Hamblett K J, et al., (2004) Clin Cancer Res. 10(20):7063-70; Yao X, et al., (2015) Breast Cancer Res Treat. 153(1):123-33). Colony-formation assays were performed as described (Crowley L C, et al., (2016) Cold Spring Harb Protoc. 2016(8):pdb.prot087171) on cells (100,000/ml) treated with the indicated concentrations of 10D7, 10D7-MMAE, IgG or IgG-MMAE overnight before being lifted and replated in 24-well plates (200 cells/well). After a defined growth period media was removed and cells gently PBS washed before staining with 0.1% crystal violet (Sigma-Aldrich) in 2% ethanol. After 20 minutes and stained cells were scanned (700 nm) on a LiCOR System (Odyssey V3.0 software) with images analyzed using the ColonyArea ImageJ plugin to quantify colony area and intensity (Guzmán C, et al., (2014) PLoS One. 9(3):e92444.). […]

[1] = test system: subcutaneous TKCC05 cells xenografts; assay: TKCC05 subcutaneous xenograft, MMAE-conjugated antibodies; assay type: in vivo, mouse; details: 5 mg/kg i.v. on day 27 and 41, in comparison with the other treatments
Procedure: Mouse experiments were approved by the University of Queensland Animal Ethics Committee. PDAC cells (2.5×10^6) were injected subcutaneously into the flanks of NOD.Cg-Prkdcscid Il2rgtm1Wjl/SzJ (NSG) mice (6-8 weeks; Jackson Laboratory, Bar Harbor, Me.). For assays assessing the impact of antibody 10D7 on xenograft growth, two weeks after PDAC cell inoculations, mice (n=6/group) were randomized and treated i.v. every four days with PBS, 10D7 (5 mg/kg) or IgG (5 mg/kg) until the end of the assay. For assays assessing whether 10D7 improves the efficacy of gemcitabine chemotherapy, four weeks after PDAC cell inoculations, mice were randomized and treated i.v. every four days with PBS (n=12), 10D7 (n=12, 5 mg/kg) or IgG (n=12, 5 mg/kg). Half of the mice in each of the three groups also received gemcitabine i.p. treatments (125 mg/kg/week). At the end of the assay tumours were harvested, weighed and processed for assessment of histology and CDCP1 expression by immunohistochemistry or western blot analysis. […] Tumour burden was monitored by calliper measurement and tumour volume calculated as previously described (Feldman J P, Goldwasser R, Mark S, Schwartz J (2009) Journal of Applied Quantitative Methods 4(4):455-462). […]
Finally, the inventors evaluated whether the PDAC targeting ability of antibody 10D7 can be harnessed to effectively deliver the cytotoxin MMAE to PDAC in vivo. […]

TKCC2.1 cells xenografts = assay: Pancreatic cancer subcutaneous xenograft, MMAE-labelled 10D7 and chimeric 10D7; details: 125 μg iv, treated twice
Procedure: Pancreatic cancer cells (TKCC2.1 cells, 1×10^6 cells) were grafted subcutaneously in NSG mice. After 4 weeks, mice were randomized into 5 groups (10 mice per group) and treated with: PBS (iv, 125 μl fortnightly), IgG-MMAE (iv, 125 μg diluted in 125 μl PBS), 10D7-MMAE (iv, 125 μg diluted in 125 μl PBS), Chim hu/mu-10D7-MMAE (iv, 125 μg diluted in 125 μl PBS) or Gemcitabine (ip, 100 mg/kg in PBS weekly).
Mice were euthanized when one ethical end point was reached (either tumour size or excessive signs of distress).

TKCC02 cells = assay: Survival assay with cytotoxin-conjugated antibodies, TKCC02; assay type: cell-based, human; details: TKCC02, 1 μg/ml, 12 h treatment then 72 h growth
Procedure: as §1

HEY cells = assay: Colony formation assay, HEY cells; assay type: cell-based, human
Procedure: as §2

TKCC10 cells = assay: Survival assay with cytotoxin-conjugated antibodies, TKCC10; assay type: cell-based, human; details: TKCC10, 1 μg/ml, 12 h treatment then 72 h growth
Procedure: as §1

PANC-1 cells = assay: Survival assay with cytotoxin-conjugated antibodies, PANC-1; assay type: cell-based, human; details: PANC-1, 1 μg/ml, 12 h treatment then 72 h growth
Procedure: as §1

B1: 10D7-MMAE (conjugate)
VH: EVQLQQFGAELVKPGASVKISCKASGYSFSDFNIEWLKQSHGKSLEWIGDINPNYDSTNYNQKFKGRATLTVDKSSSTAYMEVRSLTSEDTAVYYCARLGYGYAMDYWGQGTSVTVSS
VL: NIVMTQSPQSMSMSVGERVTLSCKASENVGAYVSWFQQKPDQSPKLLILAASNRYTGVPARFIGSGSATDFTLTISSVQAEDLADYHCGQSYTYPYTFGGGTKLEIKRADAAPTVS
TKCC05 cells
  survival of cells: about 10%
OVMZ6-CDCP1 cells
  half maximum dose required to block colony formation: ~0.07 µg/mL
[1]
  survival of xenografted mice: significantly extended survival
  tumour growth: markedly inhibited tumour growth
TKCC2.1 cells xenografts
  reduction of pancreatic tumour volume: superior to gemcitabine
  survival of mice: prolonged
TKCC02 cells
  survival of cells: about 25%
HEY cells
  half maximum dose required to block colony formation: approximately 0.2 μg/ml
TKCC10 cells
  survival of cells: about 50%
PANC-1 cells
  survival of cells: about 20%
